B1: Zyxin (Homo sapiens), Q15942 (parent)
chain: MAAPRPSPAISVSVSAPAFYAPQKKFGPVVAPKPKVNPFRPGDSEPPPAPGAQRAQMGRVGEIPPPPPEDFPLPPPPLAGDGDDAEGALGGAFPPPPPPIEESFPPAPLEEEIFPSPPPPPEEEGGPEAPIPPPPQPREKVSSIDLEIDSLSSLLDDMTKNDPFKARVSSGYVPPPVATPFSSKSSTKPAAGGTAPLPPWKSPSSSQPLPQVPAPAQSQTQFHVQPQPQPKPQVQLHVQSQTQPVSLANTQPRGPPASSPAPAPKFSPVTPKFTPVASKFSPGAPGGSGSQPNQKLGHPEALSAGTGSPQPPSFTYAQQREKPRVQEKQHPVPPPAQNQNQVRSPGAPGPLTLKEVEELEQLTQQLMQDMEHPQRQNVAVNELCGRCHQPLARAQPAVRALGQLFHIACFTCHQCAQQLQGQQFYSLEGAPYCEGCYTDTLEKCNTCGEPITDRMLRATGKAYHPHCFTCVVCARPLEGTSFIVDQANRPHCVPDYHKQYAPRCSVCSEPIMPEPGRDETVRVVALDKNFHMKCYKCEDCGKPLSIEADDNGCFPLDGHVLCRKCHTARAQT

Variants of: B1
Settings: with actn1_human ACTN1, P12814
Chain of actn1_human ACTN1, P12814 (P12814 whole entry): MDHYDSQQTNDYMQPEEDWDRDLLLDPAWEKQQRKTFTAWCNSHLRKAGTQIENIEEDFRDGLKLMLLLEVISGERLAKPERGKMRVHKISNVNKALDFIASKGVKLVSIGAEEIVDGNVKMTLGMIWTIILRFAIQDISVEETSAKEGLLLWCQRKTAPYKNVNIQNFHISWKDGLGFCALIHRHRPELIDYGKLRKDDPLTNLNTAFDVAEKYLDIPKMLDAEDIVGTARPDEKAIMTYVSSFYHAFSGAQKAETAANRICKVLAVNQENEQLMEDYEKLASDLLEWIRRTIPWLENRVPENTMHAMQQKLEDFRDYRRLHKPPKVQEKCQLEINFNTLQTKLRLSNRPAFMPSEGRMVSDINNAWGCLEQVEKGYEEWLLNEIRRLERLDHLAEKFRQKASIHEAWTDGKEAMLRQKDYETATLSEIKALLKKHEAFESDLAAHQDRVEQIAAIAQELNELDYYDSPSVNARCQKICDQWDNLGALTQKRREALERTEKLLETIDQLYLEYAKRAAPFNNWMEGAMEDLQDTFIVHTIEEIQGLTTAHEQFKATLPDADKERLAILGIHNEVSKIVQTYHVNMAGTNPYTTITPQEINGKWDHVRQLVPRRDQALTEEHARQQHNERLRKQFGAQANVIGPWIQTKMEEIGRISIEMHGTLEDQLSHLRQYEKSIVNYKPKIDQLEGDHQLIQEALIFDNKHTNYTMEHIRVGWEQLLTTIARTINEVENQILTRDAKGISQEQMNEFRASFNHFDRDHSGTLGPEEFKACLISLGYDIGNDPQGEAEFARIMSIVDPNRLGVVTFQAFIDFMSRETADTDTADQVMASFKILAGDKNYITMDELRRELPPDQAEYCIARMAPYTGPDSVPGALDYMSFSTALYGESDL

| Variant | effect of a mutation on the interaction |
| --- | --- |
| F26S | decreasing interaction |
| A31S | decreasing interaction |
| V29S | decreasing interaction |
| F39S | increasing interaction |

From IntAct's records for PubMed 11423549
